Positions count from the first letter of the chain named.
T1: MukB (E. coli, UniProt P22523 1-1486)
T1 construct: MukB, SMC-like condensin of Escherichia coli; also called condensin MukB; wild-type MukB
T1 sequence (looked up): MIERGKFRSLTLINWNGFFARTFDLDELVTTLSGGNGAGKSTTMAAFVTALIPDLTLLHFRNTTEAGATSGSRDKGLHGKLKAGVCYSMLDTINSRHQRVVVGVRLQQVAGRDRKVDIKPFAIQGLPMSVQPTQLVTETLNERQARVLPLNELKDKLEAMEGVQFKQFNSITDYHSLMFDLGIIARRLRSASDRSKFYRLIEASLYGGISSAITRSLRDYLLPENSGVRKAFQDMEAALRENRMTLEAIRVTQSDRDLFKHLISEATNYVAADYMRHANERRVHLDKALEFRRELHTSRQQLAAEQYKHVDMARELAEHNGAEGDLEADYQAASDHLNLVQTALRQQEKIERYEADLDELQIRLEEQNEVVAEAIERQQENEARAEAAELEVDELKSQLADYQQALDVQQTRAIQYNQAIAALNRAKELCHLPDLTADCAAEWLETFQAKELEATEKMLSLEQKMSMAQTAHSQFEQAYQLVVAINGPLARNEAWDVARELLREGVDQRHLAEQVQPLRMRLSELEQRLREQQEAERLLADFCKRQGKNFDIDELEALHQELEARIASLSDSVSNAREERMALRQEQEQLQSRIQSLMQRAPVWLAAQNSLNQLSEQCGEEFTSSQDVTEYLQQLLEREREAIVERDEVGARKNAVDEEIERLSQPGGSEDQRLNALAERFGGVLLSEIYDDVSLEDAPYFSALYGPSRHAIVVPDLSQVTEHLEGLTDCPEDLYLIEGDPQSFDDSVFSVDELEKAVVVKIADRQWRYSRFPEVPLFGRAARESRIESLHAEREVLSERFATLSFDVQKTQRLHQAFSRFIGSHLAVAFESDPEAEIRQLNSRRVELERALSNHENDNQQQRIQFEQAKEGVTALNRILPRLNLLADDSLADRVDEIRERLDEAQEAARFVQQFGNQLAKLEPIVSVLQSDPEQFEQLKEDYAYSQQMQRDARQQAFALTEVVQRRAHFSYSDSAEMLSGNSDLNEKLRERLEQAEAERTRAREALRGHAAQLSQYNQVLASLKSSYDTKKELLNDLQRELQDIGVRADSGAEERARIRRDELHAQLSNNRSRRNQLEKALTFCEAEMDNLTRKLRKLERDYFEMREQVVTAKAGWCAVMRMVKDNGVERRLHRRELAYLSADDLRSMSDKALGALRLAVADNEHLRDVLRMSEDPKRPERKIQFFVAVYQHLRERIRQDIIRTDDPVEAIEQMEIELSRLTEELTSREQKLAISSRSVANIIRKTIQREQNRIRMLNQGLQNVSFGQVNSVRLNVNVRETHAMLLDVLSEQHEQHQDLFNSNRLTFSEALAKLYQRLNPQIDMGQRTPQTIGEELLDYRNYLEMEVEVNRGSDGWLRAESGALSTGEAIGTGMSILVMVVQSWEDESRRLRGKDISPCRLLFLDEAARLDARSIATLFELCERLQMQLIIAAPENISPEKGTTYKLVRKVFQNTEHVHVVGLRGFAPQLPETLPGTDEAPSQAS

T2: MukBtriple (MukB3X) (Escherichia coli, UniProt P22523 1-1486, D697K;D745K;E753K)
T2 sequence: T1 sequence (looked up) with D697K, D745K, E753K

T3: MukB (Escherichia coli, UniProt P22523 1-1486)
T3 sequence: T1 sequence (looked up)

B1: ParC subunit of topoisomerase IV (natural protein, E. coli, UniProt P0AFI2 1-752, looked up)
chain: MSDMAERLALHEFTENAYLNYSMYVIMDRALPFIGDGLKPVQRRIVYAMSELGLNASAKFKKSARTVGDVLGKYHPHGDSACYEAMVLMAQPFSYRYPLVDGQGNWGAPDDPKSFAAMRYTESRLSKYSELLLSELGQGTADWVPNFDGTLQEPKMLPARLPNILLNGTTGIAVGMATDIPPHNLREVAQAAIALIDQPKTTLDQLLDIVQGPDYPTEAEIITSRAEIRKIYENGRGSVRMRAVWKKEDGAVVISALPHQVSGARVLEQIAAQMRNKKLPMVDDLRDESDHENPTRLVIVPRSNRVDMDQVMNHLFATTDLEKSYRINLNMIGLDGRPAVKNLLEILSEWLVFRRDTVRRRLNYRLEKVLKRLHILEGLLVAFLNIDEVIEIIRNEDEPKPALMSRFGLTETQAEAILELKLRHLAKLEEMKIRGEQSELEKERDQLQGILASERKMNNLLKKELQADAQAYGDDRRSPLQEREEAKAMSEHDMLPSEPVTIVLSQMGWVRSAKGHDIDAPGLNYKAGDSFKAAVKGKSNQPVVFVDSTGRSYAIDPITLPSARGQGEPLTGKLTLPPGATVDHMLMESDDQKLLMASDAGYGFVCTFNDLVARNRAGKALITLPENAHVMPPVVIEDASDMLLAITQAGRMLMFPVSDLPQLSKGKGNKIINIPSAEAARGEDGLAQLYVLPPQSTLTIHVGKRKIKLRPEELQKVTGERGRRGTLMRGLQRIDRVEIDSPRRASSGDSEE
notes: ParC, breakage and reunion subunit of topoisomerase IV of Escherichia coli; also called wild-type ParC; Cwt
B2: 50mer duplex DNA (dsDNA)
DNA 1: ATCTCGGGCTATTCTTTTGATTTATAAGGGATTTTGCCGATTTCGGAACC
DNA 2: GGTTCCGAAATCGGCAAAATCCCTTATAAATCAAAAGAATAGCCCGAGAT

Columns and labels:
MukB [1] = molecular target: T1, MukB; experiment: pull-down; MukB (125 nM) held on Dynabeads Protein A through affinity-purified MukB polyclonal antibodies; varying ParC; 50 mM HEPES-KOH pH 7.5, 50 mM KCl, 0.5 mM Mg(OAc)2, 7.5% glycerol, 0.05% IGEPAL, 15 min at 37°C; bound protein read from SDS-PAGE bands; fit to the Hill equation; KD dimer to dimer; settings: both partners purified
MukBtriple (MukB3X) = molecular target: T2, MukBtriple (MukB3X); experiment: DNA binding assay (method not stated in material); 0.5 mM Mg(OAc)2; apparent Kd; 50 mer binding: 50 mM HEPES-KOH pH 7.5, 10 mM DTT, 20 mM KCl, 0.5 mM Mg(OAc)2, 5 nM DNA; pull-down: same buffer plus 7.5% glycerol, 0.05% NP-40, loading at room temperature, assay at 37 C; settings: protein: recombinant; chain copies: 2; label: 5'-32P; blunt
MukB [2] = molecular target: T3, MukB; experiment: as above; settings: protein: recombinant; chain copies: 2; label: 5'-32P; blunt

Binder | Kd (MukB [1]) [nM] | Kd (MukBtriple (MukB3X)) [nM] | Kd (MukB [2]) [nM]
B1 | 115 | – | –
B2 | – | 30 | 120
